Measurements published in article PMC7901142 (The Journal of Cell Biology, 2021).

Target: SNX27-PDZ WT (human, UniProt Q96L92 43-136)
Assay: ITC

Kd: 4.5 µM
B1: SEMA4C (aa 686–833) (domain or fragment)
chain: LRRRLREELEKGAKATERTLVYPLELPKEPTSPPFRPCPEPDEKLWDPVGYYYSDGSLKIVPGHARCQPGGGPPSPPPGIPGQPLPSPTRLHLGGGRNSNANGYVRLQLGGEDRGGLGHPLPELADELRRKLQQRQPLPDSNPEESSV
